Data: patent US20030007991A1, “Devices including protein matrix materials and methods of making and using thereof” (priority 1998, published 2003)

Tested on: xanthine oxidase
Assay: In vitro enzyme activity of xanthine oxidase in a protein matrix array piece (Sigma Enzymatic Assay of Superoxide Dismutase protocol, spectrophotometer)
Assay type: biochemical
Details: absorbance measured at 550 mm, cytochrome C and other reactants, no enzyme activity produces 0.00000 change

xanthine oxidase
enzyme activity of xanthine oxidase (change in absorbance): 0.0250 delta absorbance/min
